Assay results as given in patent US20220185903A1, “Novel bispecific binding molecule and drug conjugate thereof” (priority 2019, published 2022).
Where a SMILES comes first, the peptide text is derived from it. [ ]: non-standard residue; d: D form. The star is where a group is joined. Dolaproine = CO[C@@H]([C@@H]1CCCN1)[C@@H](C)C(=O)O; Dil = CC[C@H](C)[C@H](NC)[C@@H](CC(=O)O)OC; X1 = C[C@@H](N*)[C@@H](O)c1ccccc1; NMeV = CN[C@H](C(=O)O)C(C)C

Key:
[1] = test system: CD20−/CXCR4+ Jurkat cells; test: Killing activity of ADC on co-cultured Ramos/Jurkat cells: Jurkat count; assay type: cell-based; conditions: co-cultured Ramos/Jurkat 1:1, 72 hours, flow cytometer count
Protocol: (§1) 6.2 Analysis of Killing Activity of ADC on Co-Cultured Ramos/Jurkat Cells
(§2) Ramos and Jurkat cells (RPMI 1640 medium containing 10% FBS and 1% double antibody) were cultured, respectively. Jurkat cells were stained with calcein-AM (eBioscience) and Ramos cells stained with Celltracker Organge CMTMR (Invitrogen) according to protocols provided by the manufacturer, followed by washed for three times with PBS. After cell count, Ramos and Jurkat cells were mixed at a ratio of 1:1, and 2×10^4 Ramos/Jurkat mixed cells were added to a U-shaped bottom 96-well plate (90 ul/well). 10 ul of SYN-AC, RTX or RXT-AC with different concentrations was added to the 96-well plate above, and incubated at 37° C., 5% CO2 for 72 hours. The numbers of the Ramos and Jurkat cells were counted with a flow cytometer (BD LSR II with a BD high throughput Sampler (HTS)).

CD20+/CXCR4+ Ramos cells = test: Killing activity of ADC on co-cultured Ramos/Jurkat cells: Ramos count; assay type: cell-based
Protocol: as §1, §2

CD20 = biological target: T1, CD20 (UniProt P11836 1-297, limits assumed); test: cell-based or functional assay
T1 sequence (looked up): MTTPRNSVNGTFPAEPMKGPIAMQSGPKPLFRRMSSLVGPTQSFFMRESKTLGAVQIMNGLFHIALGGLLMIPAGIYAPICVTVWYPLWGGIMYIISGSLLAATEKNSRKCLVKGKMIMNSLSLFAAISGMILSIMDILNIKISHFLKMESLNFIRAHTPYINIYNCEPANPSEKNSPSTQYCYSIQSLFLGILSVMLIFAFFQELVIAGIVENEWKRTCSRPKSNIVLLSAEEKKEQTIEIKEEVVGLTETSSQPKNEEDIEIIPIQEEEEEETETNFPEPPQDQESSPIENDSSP

CXCR4 [2] = biological target: T2, CXCR4 (UniProt P61073 1-352, limits assumed); test: cell-based or functional assay
CXCR4 [3] = biological target: T2, CXCR4; test: flow cytometry on CXCR4+/CD20- Jurkat cells
Protocol: (§3) The CXCR4⁺/CD20⁻ Jurkat cells and CXCR4^dim/CD20⁺JAB cells were cultured in RPMI 1640 medium containing 10% FBS and […]). Cells were collected by centrifugation, and washed with PBS for 3-4 times. After blocked by 1% BSA (in PBS) at 4° C. for 1 h, the cells were resuspended with PBS with 1% BSA at a density of 5×10⁵/100 μL. […] After being washed with PBS with 1% BSA for 3 times, cells were resuspended with PBS/1% BSA containing a PE-anti-human Fc antibody (Clone HP6017, Biolegend, CA), and incubated at 4° C. for 2 hours. Then an LSR II flow cytometer (Becton Dickinson, N.J.) was applied, and FlowJo software (TreeStar, OR) was used for analysis. Data was analyzed by nonlinear regression using a log (agonist) vs. response model in Prizm Graphpad software.

CXCR4 [4] = biological target: T2, CXCR4; test: flow cytometry on CXCR4+/CD20- Jurkat cells, PE-anti-human Fc detection
Protocol: as §3

T2 sequence (P61073 whole entry): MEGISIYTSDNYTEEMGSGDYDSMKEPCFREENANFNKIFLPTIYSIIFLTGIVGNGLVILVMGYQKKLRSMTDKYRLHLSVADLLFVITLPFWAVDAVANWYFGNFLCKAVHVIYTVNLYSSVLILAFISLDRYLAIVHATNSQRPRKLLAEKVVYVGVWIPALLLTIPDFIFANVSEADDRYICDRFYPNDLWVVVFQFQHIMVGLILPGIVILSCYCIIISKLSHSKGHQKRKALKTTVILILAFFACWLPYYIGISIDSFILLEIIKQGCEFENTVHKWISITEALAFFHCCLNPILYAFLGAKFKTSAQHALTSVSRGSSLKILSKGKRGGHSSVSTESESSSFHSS

## CC[C@H](C)[C@@H]([C@@H](CC(=O)N1CCC[C@H]1[C@H](OC)[C@@H](C)C(=O)N[C@H](C)[C@@H](O)c1ccccc1)OC)N(C)C(=O)[C@@H](NC(=O)[C@@H](NC)C(C)C)C(C)C [MMAE, monomethylalistatin E, reference compound] (H-[NMeV]V[Dil][Dolaproine]-X1)
[1]
  EC50: 24.5 ± 6.8 nM
CD20+/CXCR4+ Ramos cells; co-cultured Jurkat and Ramos cells, selectivity Jurkat vs Ramos
  TI (therapeutic index): 2.7
CD20+/CXCR4+ Ramos cells; co-cultured Ramos/Jurkat 1:1, 72 hours, flow cytometer count
  EC50: 9.1 ± 3.8 nM

B1: RTX-MMAE (RTX conjugated with NHS-PEG4-MMAE) (other)
heavy: QVQLQQPGAELVKPGASVKMSCKASGYTFTSYNMHWVKQTPGRGLEWIGAIYPGNGDTSYNQKFKGKATLTADKSSSTAYMQLSSLTSEDSAVYYCARSTYYGGDWYFNVWGAGTTVTVSAASTKGPSVFPLAPSSKSTSGGTAALGCLVKDYFPEPVTVSWNSGALTSGVHTFPAVLQSSGLYSLSSVVTVPSSSLGTQTYICNVNHKPSNTKVDKKVEPKSCDKTHTCPPCPAPPVAGPSVFLFPPKPKDTLMISRTPEVTCVVVDVSHEDPEVKFNWYVDGVEVHNAKTKPREEQYNSTYRVVSVLTVLHQDWLNGKEYKCKVSNKGLPSSIEKTISKAKGQPREPQVYTLPPSRDELTKNQVSLTCLVKGFYPSDIAVEWESNGQPENNYKTTPPVLDSDGSFFLYSKLTVDKSRWQQGNVFSCSVMHEALHNHYTQKSLSLSPGK
light: QIVLSQSPAILSASPGEKVTMTCRASSSVSYIHWFQQKPGSSPKPWIYATSNLASGVPVRFSGSGSGTSYSLTISRVEAEDAATYYCQQWTSNPPTFGGGTKLEIKRTVAAPSVFIFPPSDEQLKSGTASVVCLLNNFYPREAKVQWKVDNALQSGNSQESVTEQDSKDSTYSLSSTLTLSKADYEKHKVYACEVTHQGLSSPVTKSFNRGEC
modifications: conjugated with NHS-PEG4-MMAE, 0 to 2 per light chain by MS; sites not stated; conjugated with NHS-PEG4-MMAE, 0 to 2 per heavy chain by MS; sites not stated
CD20
  EC50 (nM), killing of Ramos cells in co-cultured Ramos/Jurkat cells, 72 h: 6 nM

B2: RTX-AC-MMAE (RTX-AC conjugated with NHS-PEG4-MMAE) (other)
heavy: B1 heavy
light: QIVLSQSPAILSASPGEKVTMTCRASSSVSYIHWFQQKPGSSPKPWIYATSNLASGVPVRFSGSGSGTSYSLTISRVEAEDAATYYCQQWTSNPPTFGGGTKLEIKRTVAAPSVFIFPPSDEQLKSGTASVVCLLNNFYPREAKVQWKVDNALQSGNSQESVTEQDSGGSGAKLAALKAKLAALKGGGGSYRKCRGGRRWCYQKGGGGSELAALEAELAALEAGGSGDSTYSLSSTLTLSKADYEKHKVYACEVTHQGLSSPVTKSFNRGEC
modifications: conjugated with NHS-PEG4-MMAE, 0 to 2 per light chain by MS; sites not stated; conjugated with NHS-PEG4-MMAE, 0 to 3 per heavy chain by MS; sites not stated
CD20
  EC50 (nM), killing of Ramos cells in co-cultured Ramos/Jurkat cells, 72 h: 0.29 nM
CXCR4 [2]
  EC50 (nM), killing of Ramos cells in co-cultured Ramos/Jurkat cells, 72 h: 0.29 nM

B3: RTX-AC (Rituxan with the CXCR4 antagonistic peptide inserted into the constant region of the light chain) (bispecific antibody, human IgG1, kappa)
heavy: B1 heavy
light: B2 light
notes: hIgG1 Fc with E233P/L234V/L235A/deltaG236+A327G/A330S/P331S; also called RXT-AC
CXCR4 [3]
  binding result: binds

B4: SYN-AC-MMAE (SYN-AC conjugated with NHS-PEG4-MMAE) (other)
heavy: QVTLRESGPALVKPTQTLTLTCTFSGFSLSTSGMSVGWIRQPPGKALEWLADIWWDDKKDYNPSLKSRLTISKDTSKNQVVLKVTNMDPADTATYYCARSMITNWYFDVWGAGTTVTVSSASTKGPSVFPLAPSSKSTSGGTAALGCLVKDYFPEPVTVSWNSGALTSGVHTFPAVLQSSGLYSLSSVVTVPSSSLGTQTYICNVNHKPSNTKVDKKVEPKSCDKTHTCPPCPAPPVAGPSVFLFPPKPKDTLMISRTPEVTCVVVDVSHEDPEVKFNWYVDGVEVHNAKTKPREEQYNSTYRVVSVLTVLHQDWLNGKEYKCKVSNKGLPSSIEKTISKAKGQPREPQVYTLPPSRDELTKNQVSLTCLVKGFYPSDIAVEWESNGQPENNYKTTPPVLDSDGSFFLYSKLTVDKSRWQQGNVFSCSVMHEALHNHYTQKSLSLSPGK
light: DIQMTQSPSTLSASVGDRVTITCKCQLSVGYMHWYQQKPGKAPKLLIYDTSKLASGVPSRFSGSGSGTEFTLTISSLQPDDFATYYCFQGSGYPFTFGGGTKLEIKRTVAAPSVFIFPPSDEQLKSGTASVVCLLNNFYPREAKVQWKVDNALQSGNSQESVTEQDSGGSGAKLAALKAKLAALKGGGGSYRKCRGGRRWCYQKGGGGSELAALEAELAALEAGGSGDSTYSLSSTLTLSKADYEKHKVYACEVTHQGLSSPVTKSFNRGEC
modifications: conjugated with NHS-PEG4-MMAE, 0 to 2 per light chain by MS; sites not stated; conjugated with NHS-PEG4-MMAE, 0 to 2 per heavy chain by MS; sites not stated
CXCR4 [2]
  EC50 (nM), killing of Jurkat cells in co-cultured Ramos/Jurkat cells, 72 h: 21 nM
  EC50 (nM), killing of Ramos cells in co-cultured Ramos/Jurkat cells, 72 h: 12.6 nM

B5: SYN-AC (Synagis, anti-RSV, with the CXCR4 antagonistic peptide inserted into the constant region of the light chain) (bispecific antibody, human IgG1, kappa)
heavy: B4 heavy
light: B4 light
notes: hIgG1 Fc with E233P/L234V/L235A/deltaG236+A327G/A330S/P331S
CXCR4 [3]
  binding result: binds

B6: RTX (Rituxan, anti-CD20 antibody) (antibody, V domains shown)
VH: QVQLQQPGAELVKPGASVKMSCKASGYTFTSYNMHWVKQTPGRGLEWIGAIYPGNGDTSYNQKFKGKATLTADKSSSTAYMQLSSLTSEDSAVYYCARSTYYGGDWYFNVWGAGTTVTVSA
VL: QIVLSQSPAILSASPGEKVTMTCRASSSVSYIHWFQQKPGSSPKPWIYATSNLASGVPVRFSGSGSGTSYSLTISRVEAEDAATYYCQQWTSNPPTFGGGTKLEIKR
notes: Rituxan Fab heavy chain cloned into pFuse-hIgG1-Fc carrying E233P/L234V/L235A/deltaG236+A327G/A330S/P331S; expressed in HEK293
CXCR4 [4]
  binding result: no binding
